Results: ChEMBL document CHEMBL1250451, “Mechanistic insights into a Ca2+-dependent family of alpha-mannosidases in a human gut symbiont” (Nat Chem Biol, 2010)

How the values were obtained:
Assay type in all cases: protein assay
[1] = substrate: O=[N+]([O-])c1ccc(O[C@H]2O[C@H](CO)[C@@H](O)[C@H](O)[C@@H]2O)cc1; assay: Activity of Bacteroides thetaiotaomicron GH92 alpha-mannosidase GH92 alpha-mannosidase 3991 assessed as mannose release after 16 hrs by HPLC
[2] = substrate: O=[N+]([O-])c1ccc(O[C@H]2O[C@H](CO)[C@@H](O)[C@H](O)[C@@H]2O)cc1; assay: Ratio of Kcat to Km for Bacteroides thetaiotaomicron GH92 alpha-mannosidase GH92 alpha-mannosidase 3991 assessed as mannose release after 16 hrs by HPLC
[3] = substrate: OC[C@H]1O[C@H](O[C@H]2[C@H](O)[C@H](O)[C@@H](O)O[C@@H]2CO)[C@@H](O)[C@@H](O)[C@@H]1O; assay: (§1) Ratio of Kcat to Km for Bacteroides thetaiotaomicron GH92 alpha-mannosidase GH92 alpha-mannosidase 3965 assessed as mannose release after 16 hrs by HPLC
[4] = substrate: O=[N+]([O-])c1ccc(O[C@H]2O[C@H](CO)[C@@H](O)[C@H](O)[C@@H]2O)cc1; assay: as §1
[5] = substrate: OC[C@H]1O[C@H](O[C@H]2[C@H](O)[C@H](O)[C@@H](O)O[C@@H]2CO)[C@@H](O)[C@@H](O)[C@@H]1O; assay: (§2) Activity of Bacteroides thetaiotaomicron GH92 alpha-mannosidase GH92 alpha-mannosidase 3965 assessed as mannose release after 16 hrs by HPLC
[6] = substrate: O=[N+]([O-])c1ccc(O[C@H]2O[C@H](CO)[C@@H](O)[C@H](O)[C@@H]2O)cc1; assay: as §2

| Protein | Km [1] [µM] | kcat [1] [s⁻¹] | kcat/Km [2] [M⁻¹ s⁻¹] | kcat/Km [3] [M⁻¹ s⁻¹] | kcat/Km [4] [M⁻¹ s⁻¹] | Km [5] [µM] | kcat [5] [s⁻¹] | Km [6] [µM] | kcat [6] [s⁻¹] |
| --- | --- | --- | --- | --- | --- | --- | --- | --- | --- |
| Alpha-1,2-mannosidase (BT_3991) (Bacteroides thetaiotaomicron), Q8A0N0 (protein) MKLKTLLIGCFGGFIMLNSCTESPSVKDYSAYVNPFIGTGGHGHTFPGAVVPHGMIQPSPDTRIDGWDACSGYYYDDNTINGFSHTHVSGTGCCDYGDVLLMPTVGKPQYLTTDPESQKLAYASAFSHENETAEPGYYSVFLDTYQVKAEITATKRGAIHRYTFPESTESGFIIDLDYSLQRQTNYEMEIEVISDTEICGHKKTTYWAFDQYINFYAKFSKPFAYTLITDSVTMDNGKRLPVCKAVLHFNTKKDEEVLVKVGVSAVDIAGARKNVESEIPEWDFDKVRKDARTAWNNYLSKIDITTSDKEDKTIFYTALYHTAISPNLFTDADGRYLGMDLEVHQGDTINPLYTVFSLWDTFRALHPLMTIIDPNLNNQFINSLIRKHQEGGIYPMWDLASNYTGTMIGYHAVPVIVDAYMKGYRNFDAHEAYKASLRAAEYDTTGIKCPDLVLPHLMPKAKYYKNAIGYIPCDRENESVAKALEYAYDDWCISIFAEAMNDFENKAKYERFAKAYEFYFDKSTRFMRGLDSNGEWRTPFNPRASTHRSDDYCEGTAWQWTWFVPHDVEGLVKLMGGEDAFVEKLDSLFTVDSSLDGETTSADISGLIGQYAHGNEPSHHVIHLYNYVNRPWRTQELVDSVYRSQYANNVDGLSGNEDCGQMSAWYILNSMGFYQVCPGKPVYSIGRPAFDKAVINLPGEKTFSIVAKNNSKSNKYIESVLLNGKPLDTPFFGHQDIVAGGVMEIRMTDHPTQWGVRQ | 2700 | 0.0025 | 0.917 | – | – | – | – | – | – |
| Alpha-1,2-mannosidase (BT_3965) (Bacteroides thetaiotaomicron), Q8A0Q6 (protein) MAQTEKLTDYVNPFVGTDGYGNVYPGAQIPFGGIQISPDTDSRFYDAASGYKYNHLTLMGFSLTHLSGTGIPDLGDFLFIPGTGEMKLEPGTHEDPDQGYRSRYSHDKEWASPNYYAVELADYGVKAEMTSGVRSGMFRFTYPESDNAFIMIDMNHTLWQSCEWSNLRMINDSTITGYKLVKGWGPERHVYFTATFSKKLTGLRFVQDKKPVIYNTSRFRSSYEAWGKNLMACISFDTKAGEEVTVKTAISAVSTDGARNNMKELDGLTFNELRAKGEALWEKELGKYTLTADRKTKETFYTSAYHAALHPFIFQDSDGQFRGLDKNIEKAEGFTNYTVFSLWDTYRALHPWFNLVQQEVNADIANSMLAHYDKSVEKMLPIWSFYGNETWCMIGYHAVSVLADMIVKEVKGFDYERAYEAMKTTAMNSNYDCLPEYREMGYVPFDKEAESVSKTLEYAYDDYCIAQAAKKLGKEDDYHYFLNRALSYQTLIDPETKYMRGRDSKGDWRTPFTPVAYQGPGSVHGWGDITEGFTMQYTWYVPQDVQGYINEAGKELFRKRLDELFTVELPDDIPGAHDIQGRIGAYWHGNEPCHHVAYLYNYLKEPWKCQKWIRTIVDRFYGNTPDALSGNDDCGQMSAWYMFNCIGFYPVAPSSNIYNIGSPCAEAITVRMSNGKNIEMTADNWSPKNLYVKELYVNGKKYDKSYLTYDDIRDGVKLRFVMSGKPNYKRAVSDEAVPPSISLPEKTMKYKSSIGF | – | – | – | 183 | 233 | 8000 | 1.48 | 1000 | 0.233 |
